Assay results reported in US11213565B2, “Protein P8 derived from lactic acid bacteria and its use as anti-cancer agent” (CELL BIOTECH CO., LTD., priority 2016, dated 2022).

Legend:
[1] = system: colorectal cancer cell line DLD-1; test: Cell survival rate (WST-8) in DLD-1; format: cell-based, human; conditions: 0.39 μl/ml to 100 μl/ml, 24 hours
Method: Colorectal cancer DLD-1 cells were cultured in a 96-well plate at a density of 1×10^4 cells/well, and each of active sites 1 to 3 (SEQ ID NOs: 8 to 10) of Example 1-3 was added thereto at a concentration of 10 μg/ml. As a negative control, 0.1% PBS buffer used in protein purification was used. The cells were incubated for 24 hours, and then each well was treated with 100 of a cell survival rate measurement kit (Dojindo Cell count kit WST-8) and incubated for 2 hours. The absorbance of each well at 450 nm was measured using a microplate reader (Amersham, Biorad, USA, Japan), and based on the measured values, cell survival rates were calculated.
(§1) Each of the colorectal cancer cell line DLD-1 and the HT-29 cell line was cultured in a 96-well plate at a density of 1×10^4 cells/well, and the P8 protein of Example 1 was added thereto at a concentration of 0.39 μl/ml to 100 μl/ml. As a negative control, 0.1% PBS buffer used in protein purification was used. The cells were incubated for 24 hours, and then each well was treated with 100 of a cell survival rate measurement kit (Dojindo Cell count kit WST-8) and incubated for 2 hours. The absorbance of each well at 450 nm was measured using a microplate reader (Amersham, Biorad, USA, Japan), and based on the measured values, cell survival rates were calculated.

[2] = system: HT-29 cell line; test: Cell survival rate (WST-8) in HT-29; format: cell-based; conditions: 0.39 μl/ml to 100 μl/ml, 24 hours
Method: as §1

[3] = system: Colorectal cancer DLD-1 cells; test: LIVE/DEAD viability/cytotoxicity staining of DLD-1; format: cell-based, human; conditions: 1 μg/ml or 10 μg/ml, 24 to 48 hours
Method: (§2) Colorectal cancer DLD-1 cells were cultured in a 6-well plate at a density of 1.5×10^6 cells/well, and a P8 protein of the present invention was added thereto at a concentration of 1 μg/ml or 10 μg/ml. Next, the cells were incubated for 24 to 48 hours, and then washed twice with phosphate buffered saline and treated with 1 ml of a LIVE/DEAD viability/cytotoxicity staining kit, followed by incubation for 20 to 40 minutes. By the staining, living cells were stained green, and dead cells were stained red. The cells were observed under a fluorescent microscope, and the degree of inhibition of viability thereof was analyzed.
as §2, with “and the” for “and a”, “of Example 1” for “of the present invention”, “μg/ml. Each well was” for “μg/ml. Next, the cells were”, “staining, live” for “staining, living”

[4] = system: NIH3T3 cells (mouse embryonic fibroblast cells); test: Cytotoxicity assay (WST-8) in NIH3T3; format: cell-based; conditions: 0.39 μg/ml to 100 μg/ml, 24 hours
Method: In order to examine whether the P8 protein of Example 1 is cytotoxic, a cytotoxicity assay was performed using the P8 protein, highly expressed in NIH3T3 cells (mouse embryonic fibroblast cells), and BSA (bovine serum albumin) as a […] control.
First, NIH3T3 cells were cultured in a 96-well plate at a density of 1×10^4 cells/well, and each of BSA and the highly expressed and purified P8 protein was added thereto at a concentration of 0.39 μg/ml to 100 μg/ml. Each well was incubated for 24 hours, and then treated with 100 of a cell survival rate measurement kit (Dojindo Cell count kit WST-8), followed by incubation for 2 hours. The absorbance of each well at 450 nm was measured using a microplate reader (Amersham, Biorad, USA, Japan), and based on the measured values, cell survival rates were calculated.

[5] = system: Colorectal cancer DLD-1 cells; test: Scratch assay, migration of colorectal cancer cells; format: cell-based, human; conditions: 1 μg/ml daily
Method: Colorectal cancer DLD-1 cells were treated daily with 1 μg/ml of the P8 protein of Example 1 for 1, 3 or 7 days, and then dispensed into each well of a 6-well plate.
The dispensed DLD-1 cells were cultured overnight, and then the plate having the cells cultured thereon was scratched with a 200 μl tip. To remove suspended material resulting from the scratch, the plate was washed twice with PBS, and then additionally incubated for 24 hours.

[6] = system: human colorectal cancer cell line (DLD-1) xenograft; test: Colorectal cancer xenograft model, tumor volume; format: in vivo, nude mice
Method: The human colorectal cancer cell line (DLD-1) was transplanted subcutaneously into nude mice, thereby constructing xenograft models. Using the xenograft models, the anticancer activity of the P8 protein of Example 1 was evaluated.
First, for construction of colorectal cancer xenograft models, DLD-1 cells were transplanted subcutaneously into nude mice at a concentration of 1×10^7 cells/100 μl. 10 to 15 Days after the transplantation, the transplanted state of the tumor cells was checked, and mice showing a stable transplanted state were continuously observed. Before tumor's central necrosis occurred, mice showing rapid tumor growth due to supply of sufficient blood were selected, and tumor tissues were collected therefrom. Of the collected tumor tissue, the outer portion in which rapid cell division mainly occurred was cut into a predetermined size (3×3×3 mm), thereby constructing a tumor fragment. Then, the tumor fragment was placed on the tip of a puncture needle (Trocar), and the anterior side of the left rear leg of each animal was incised about 4 mm. The prepared puncture needle was inserted through the incision such that the tip reached the interbody side on the rear side of the left front leg. […] The position of the tumor fragment was determined by touching the skin with hand. […]
During drug administration, the tumor size was measured using Vernier calipers once every two days. […]

B1: P8 protein: 8 KDa protein fragment extracted from Lactobacillus rhamnosus, amino acid sequence SEQ ID NO: 2 (protein, listed as Lactobacillus rhamnosus)
chain: MATVDPEKTLFLDEPMNKVFDWSNSEAPVRDALWDYYMEKNSRDTIKTEEEMKPVLDMSDDEVKALAEKVLKK
With B1 the “cell growth inhibitory effect” value [1] was “about 20%”, the “cell growth inhibitory effect” value [2] was “about 20%” and the “dependence of viability on concentration or time of treatment” value [3] was “decreased as the concentration or time of treatment with the P8 protein increased”. The “viability of the cells compared to negative control” value ([3]; fluorescent microscope) was “decreased”, the “cytotoxicity (cell survival rate compared with BSA)” value [4] was “not cytotoxic” and the “decrease of migration rate of the cells compared to untreated control” value (shortened to “decrease of migration rate of the cells”) ([5]; 1-day treatment) was 15.7%. For the same molecule, the “decrease of migration rate of the cells” value ([5]; 3-day treatment) was 45.9%, the “decrease of migration rate of the cells” value ([5]; 7-day treatment) was 58.3% and the “cancer growth inhibitory effects compared to conventional anticancer agents” value ([6]; 10 mg/Kg or higher, intraperitoneally twice a week for 4 weeks, vs 5-fluorouracil 10 mg/Kg, oxaliplatin 4 mg/Kg) was “superior”. For the same molecule, the “cancer growth compared to negative control group” value ([6]; 1, 5 and 10 mg/Kg intraperitoneally twice a week for 4 weeks) was “significantly inhibited”.
